Values of other authors as cited in article PMC7876049.

Biological target: CYK4 (Homo sapiens) (UniProt Q9H0H5)
UniProt Q9H0H5, sequence (Q9H0H5 whole entry): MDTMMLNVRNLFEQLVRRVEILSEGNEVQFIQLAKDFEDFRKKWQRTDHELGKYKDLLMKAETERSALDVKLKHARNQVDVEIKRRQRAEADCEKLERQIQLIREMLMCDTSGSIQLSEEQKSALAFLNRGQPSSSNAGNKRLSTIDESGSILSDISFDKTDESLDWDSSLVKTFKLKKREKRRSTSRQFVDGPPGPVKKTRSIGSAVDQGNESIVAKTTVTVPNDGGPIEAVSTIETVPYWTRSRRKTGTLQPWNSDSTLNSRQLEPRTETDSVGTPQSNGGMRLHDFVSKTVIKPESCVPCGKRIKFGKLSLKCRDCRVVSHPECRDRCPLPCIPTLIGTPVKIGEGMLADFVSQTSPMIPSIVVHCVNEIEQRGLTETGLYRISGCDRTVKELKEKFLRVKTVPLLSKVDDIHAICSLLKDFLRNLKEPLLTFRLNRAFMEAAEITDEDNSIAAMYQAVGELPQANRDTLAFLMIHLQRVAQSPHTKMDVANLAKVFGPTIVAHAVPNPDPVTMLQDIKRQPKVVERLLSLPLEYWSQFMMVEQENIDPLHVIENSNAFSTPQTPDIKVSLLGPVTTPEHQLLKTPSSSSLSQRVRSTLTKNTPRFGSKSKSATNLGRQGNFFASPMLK

- Kd: 7 nM
Substance: MKLP1 (from UniProt Q02241)
